These results are taken from US20050002917A1 (UNIVERSITY OF MASSACHUSETTS, published 2005).

For this test, the target named is T1, 35S-methionine-luciferase (in vitro translated from the Promega luciferase control plasmid) (UniProt P08659 1-550 = luciferase, 35S-methionine label).
T1 construct: Control protein in the pull-down; also called control protein luciferase
Description: GST pull-down of 35S-labelled protein on glutathione-Sepharose 4B beads, SDS/PAGE and autoradiography. The protocol: The CaM kinase II domain of mCASK-C cDNA was amplified by PCR and cloned in frame into SmaI of pGEX-2T and transformed into E. coli BL21 cells. […] For pull-down assays, radiolabeled Acheron and luciferase was produced from pET-25b(+)-Acheron and luciferase controlled plasmid (Promega) by using in vitro TNT Quick Coupled Transcription/Translation System (Promega) with ³⁵S-methionine as the sole source of methionine, following the manufacture's instructions. 5 μl of ³⁵S-methionine-Acheron and ³⁵S-methionine-luciferase were incubated with equal amount of GST or GST-mCASK-C (CaM kinase II domain) bound to glutathione-Sepharose 4B beads, respectively, under constant rocking for 45 minutes in 2 ml of NETN binding buffer. ³⁵S-methionine-luciferase and GST were used as the controls in the binding assays. The Sepharose beads were pelleted and washed extensively with the binding buffer and were analyzed by SDS/PAGE and autoradiography.
To further confirm the physical interaction between Acheron and mCASK-C, an in vitro protein binding assay was performed. […] The beads were pelleted and washed extensively and the bound protein complex was resolved by SDS/PAGE and detected by autoradiography.

T1 sequence (P08659 whole entry): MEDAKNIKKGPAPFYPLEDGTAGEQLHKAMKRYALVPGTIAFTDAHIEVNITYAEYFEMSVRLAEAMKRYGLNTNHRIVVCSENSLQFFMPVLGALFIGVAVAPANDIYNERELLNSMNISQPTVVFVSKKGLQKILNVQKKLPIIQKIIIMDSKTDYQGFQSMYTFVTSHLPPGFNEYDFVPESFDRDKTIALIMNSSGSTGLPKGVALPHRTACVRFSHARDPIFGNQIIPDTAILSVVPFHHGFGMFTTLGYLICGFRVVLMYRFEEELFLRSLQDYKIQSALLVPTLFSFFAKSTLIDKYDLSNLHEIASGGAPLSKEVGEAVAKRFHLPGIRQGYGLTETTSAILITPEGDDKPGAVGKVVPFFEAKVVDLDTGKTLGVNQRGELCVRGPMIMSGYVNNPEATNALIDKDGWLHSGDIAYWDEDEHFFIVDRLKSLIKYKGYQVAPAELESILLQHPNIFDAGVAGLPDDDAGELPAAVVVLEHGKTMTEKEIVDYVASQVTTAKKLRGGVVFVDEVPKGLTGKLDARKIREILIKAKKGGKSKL

B1: GST-mCASK-C (CaM kinase II domain from amino acid 1 to 339) (other)
chain: MADDDVLFEDVYELCEVIGKGPFSVVRRCINRETGQQFAVKIVDVAKFTSSPGLSTEDLKREASICHMLKHPHIVELLETYSSDGMLYMVFEFMDGADLCFEIVKRADAGFVYSEAVASHYMRQILEALRYCHDNNIIHRDVKPHCVLLASKENSAPVKLGGFGVAIQLGESGLVAGGRVGTPHFMAPEVVKREPYGKPVDVWGCGVILFILLSGCLPFYGTKERLFEGIIKGKYKMNPRQWSHISESAKDLVRRMLMLDPAERITVYEALNHPWLKERDRYAYKIHLPETVEQLRKFNARRKLKGAVLAAVSSHKFNSFYGDPPEELPDFSEDPTSSG
notes: Expressed in E. coli BL21 and immobilised on glutathione-Sepharose 4B beads; not shown: glutathione S-transferase from vector pGEX-2T
In the case of B1, the binding result is reported as “no binding”.
